Source: patent publication US6429014B1, “Monoterpene synthases from grand fir (Abies grandis)” (Washington State University Research Foundation, priority 1997, dated 2002)

Assay: Terpene synthase assay and GC-MS / chiral GC product identification of recombinant enzymes expressed from pSBET in E. coli BL21(DE3) (Example 11)
Assay type: biochemical
Settings: extracts of induced cells
Experimental: For functional expression, bacterial strains E. coli BL21(DE3)/pSAG2(M), E. coli BL21(DE3)/pSAG2(R), E. coli BL21(DE3)/pSAG3(R), E. coli BL21(DE3)/pSAG6(M), E. coli BL21(DE3/pSAG6(R), E. coli BL21(DE3)/pSAG8(M), E. coli BL21(DE3)/pSAG9(M), E. coli BL21(DE3)/pSAG11(M) and E. coli BL21(DE3)/SAG11(R) were grown to A600=0.5 at 37° C. in 5 ml of Luria-Bertani medium (Sambrook, J., Fritsch, E. F., and Maniatis, T. (1989) Molecular Cloning: A Laboratory Manual, 2nd Ed., pp. 7.20-7.43, Cold Spring Harbor, N.Y.) supplemented with 30 μg kanamycin/ml. Cultures were then induced by addition of 1 mM isopropyl-1-thio-β-D-galactopyranoside and grown for another 12 h at 20° C. Cells were harvested by centrifugation and disrupted by sonication followed by centrifugation, and the resulting soluble enzyme preparations were assayed for monoterpene, sesquiterpene and diterpene synthase activity using the appropriate radiolabeled substrate as described previously (Bohlmann, J., Steele, C. L., and Croteau, R. (1997) J. Biol. Chem. 272, 21784-21792). This assay involves the isolation and separation of terpene olefins and oxygenated terpenes by column chromatography on silica, followed by scintillation counting to determine conversion rate. GC-MS analysis is employed for product identification, by comparison of retention times and mass spectra to those of authentic standards (Bohlmann, J., Steele, C. L., and Croteau, R. (1997) J. Biol Chem. 272, 21784-21792); assignment of absolute configuration is based upon chiral column capillary GC and matching of retention time to that of the corresponding enantiomer (Lewinsohn, E., Savage, T. J., Gijzen, M., and Croteau, R. (1993) Phytochem. Anal. 4, 220-225). To insure production of sufficient material for identification, the standard assay (Bohlmann, J., Steele, C. L., and Croteau, R. (1997) J. Biol. Chem. 272, 21784-21792) was scaled up by a factor of 20.
Initially, the four pSBET plasmids pSAG6(M), pSAG8(M), pSAG9(M) and pSAG11(M), containing the full-length cDNA inserts of ag6 (SEQ ID NO:64), ag8 (SEQ ID NO:66), ag9 (SEQ ID NO:77) and ag11 (SEQ ID NO:68), respectively, were expressed in E. coli BL21(DE3). Extracts of the induced, transformed bacterial cells were assayed for monoterpene, sesquiterpene and diterpene synthase activity using the corresponding labeled C10, C15 and C20 prenyl diphosphate substrates (Bohlmann, J., Steele, C. L., and Croteau, R. (1997) J. Biol. Chem. 272, 21784-21792). […] Since it is known that the relatively large amino-terminal transit peptide of plant terpene synthases can impair expression of the functional preprotein in E. coli and promote the formation of intractable inclusion bodies (Williams, D. C., McGarvey, D. J., Katahira, E. J., and Croteau, R. (1998) Biochemisiry 37, 12213-12220), the“pseudomature” forms of ag6 (SEQ ID NO:64) and ag11 (SEQ ID NO:68) were prepared by truncation of the cDNAs to insert a starting methionine immediately upstream of their tandem arginine elements (R59R 60 for ag6 (SEQ ID NO:64), R^71R^72 for ag11 (SEQ ID NO:68)) for expression in E. coli BL21(DE3)/pSAG6(R) and E. coli BL21(DE3)/pSAG11(R). Similar truncations of previously characterized ag2.2 (SEQ ID NO:1) (myrcene synthase, R^64R^65) and ag3.18 (SEQ ID NO:3) ((−)-pinene synthase, (SEQ ID NO:5) R^64R^65) (Bohlmann, J., Steele, C. L., and Croteau, R. (1997) J. Biol. Chem. 272, 21784-21792) were prepared for expression from pSBET as controls for the possible alteration of product yield and distribution resulting from truncation.
Monoterpenes generated at preparative scale from geranyl diphosphate by the recombinant enzymes encoded by ag6 (SEQ ID NO:64), ag8 (SEQ ID NO:66), ag9 (SEQ ID NO:77) and ag11 (SEQ ID NO:68) were analyzed by GC-MS and chiral phase (β-cyclodextrin) capillary GC, and identified by comparison of retention times and mass spectra to authentic standards (FIGS. 6-9). […] The enzyme encoded by ag6 (SEQ ID NO:65) is therefore designated as (−)-1S,4R-camphene synthase. […]

B1: AG3.18: recombinant (−)-pinene synthase from Grand fir encoded by cDNA clone AG3.18 (SEQ ID NO:3; protein SEQ ID NO:4) (protein, listed as Abies grandis)
chain: MALVSTAPLASKSCLHKSLISSTHELKALSRTIPALGMSRRGKSITPSISMSSTTVVTDDGVRRRMGDFHSNLWDDDVIQSLPTAYEEKSYLERAEKLIGEVKNMFNSMSLEDGELMSPLNDLIQRLWIVDSLERLGIHRHFKDEIKSALDYVYSYWGENGIGCGRESVVTDLNSTALGLRTLRLHGYPVSSDVFKAFKGQNGQFSCSENIQTDEEIRGVLNLFRASLIAFPGEKIMDEAEIFSTKYLKEALQKIPVSSLSREIGDVLEYGWHTYLPRLEARNYIQVFGQDTENTKSYVKSKKLLELAKLEFNIFQSLQKRELESLVRWWKESGFPEMTFCRHRHVEYYTLASCIAFEPQHSGFRLGFAKTCHLITVLDDMYDTFGTVDELELFTATMKRWDPSSIDCLPEYMKGVYIAVYDTVNEMAREAEEAQGRDTLTYAREAWEAYIDSYMQEARWIATGYLPSFDEYYENGKVSCGHRISALQPILTMDIPFPDHILKEVDFPSKLNDLACAILRLRGDTRCYKADRARGEEASSISCYMKDNPGVSEEDALDHINAMISDVIKGLNWELLKPDINVPISAKKHAFDIARAFHYGYKYRDGYSVANVETKSLVTRTLLESVPL
terpene synthase activity on expression from pSBET in E. coli BL21(DE3): high level expression of activity
